Experimental data reported in patent US20130071921A1 (Pfizer, published 2013).

Experiments:
[1] = target: T1, Recombinant human Dkk-1 (R&D Systems cat no. 1096-DK/CF), 10xHis tag at the C terminal (human, UniProt O94907 32-266); assay: SPR BIAcore 25C, huMabJC18 IgG amine-coupled, human Dkk1 injected
T1 construct: the actual N-terminus of the purified protein is marked in bold italic after residue 30, but the mark is an image lost in the text; also called rhuDkk-1; hDkk-1
T1 sequence: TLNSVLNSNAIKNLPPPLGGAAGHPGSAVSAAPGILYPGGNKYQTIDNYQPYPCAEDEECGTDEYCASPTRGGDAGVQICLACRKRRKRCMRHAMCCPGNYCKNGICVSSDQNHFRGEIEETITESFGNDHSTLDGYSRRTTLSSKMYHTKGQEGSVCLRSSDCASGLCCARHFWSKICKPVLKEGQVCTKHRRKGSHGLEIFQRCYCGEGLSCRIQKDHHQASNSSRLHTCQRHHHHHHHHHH
Procedure: The affinity of huMabJC18 to human, mouse or rat Dkk1 was determined by using the BIAcore3000™ surface plasmon resonance (SPR) system (BIAcore Inc., Piscataway, N.J.), equipped with a CM5 sensor chip (BIAcore AB, Uppsala, Sweden). For the huMabJC18-human Dkk1 interaction analysis, reaction surfaces were generated by amine coupling of huMabJC18 to three flow cells (Fc2, Fc3 and Fc4). CM5 chips were activated with N-ethyl-N′-(3-dimethylaminopropyl)-carbodiinide hydrochloride (EDC) and N-hydroxysuccinimide (NHS) according to the supplier's instructions. The huMabJC18 IgG was diluted into 10 mM sodium acetate pH 4.0 and injected over the activated chip at a concentration of 30 μg/ml.
Using variable flow time across the individual chip channels, a range of antibody density was achieved: 200-800 response units (RU). The IgG and reference surfaces were then saturated with goat Fab2 anti-human Fc (Cappel 55053) to prevent nonspecific binding by Dkk-1 to the chip surface. The chip was then blocked with ethanolamine. Assays were performed at 25° C., with a BIAcore running buffer composed of HBS-EP (0.01M HEPES, pH 7.4, 0.15 NaCl, 3 mM EDTA, 0.005% Surfactant P20)+2 mg/ml BSA+2 mg/ml CM Dextran. A five membered, three fold dilution series starting at 30.9 nM purified human Dkk1 (R&D Systems) protein was injected for 1.5 min at 100 μL/min, and dissociation was monitored for […]. Kinetic association rates (kₒₙ) and dissociation rates (koff) were obtained simultaneously by fitting the data to a 1:1 Langmuir binding model (Karlsson, R. Roos, H. Fagerstam, L. Petersson, B. (1994). Methods Enzymology 6. 99-110) using the BIAevaluation program. Equilibrium dissociation constant (KD) values were calculated as koff/kₒₙ.

[2] = target: T1, Recombinant human Dkk-1 (R&D Systems …); assay: method not given
[3] = target: T2, recombinant mouse Dkk-1 (R&D systems Cat No. 1765-DK/CF) (mouse, UniProt O54908 32-272); assay: method not given
T2 construct: Bought
T2 sequence (looked up): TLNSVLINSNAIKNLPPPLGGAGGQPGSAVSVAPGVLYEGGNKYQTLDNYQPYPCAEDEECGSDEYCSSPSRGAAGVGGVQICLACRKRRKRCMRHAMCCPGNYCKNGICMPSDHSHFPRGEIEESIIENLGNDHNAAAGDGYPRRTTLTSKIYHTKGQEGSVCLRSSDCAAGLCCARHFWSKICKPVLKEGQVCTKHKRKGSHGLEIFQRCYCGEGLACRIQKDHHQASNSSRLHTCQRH

[4] = target: T3, recombinant human Dkk4 (R&D systems Cat No. 1269-DK/CF) (human, UniProt Q9UBT3 19-224); assay: SPR BIAcore, huMabJC18 captured by goat Fab2 anti-human Fc, hDkk-4 titrated from 76.3 nM
T3 construct: Bought; also called hDkk-4
T3 sequence (looked up): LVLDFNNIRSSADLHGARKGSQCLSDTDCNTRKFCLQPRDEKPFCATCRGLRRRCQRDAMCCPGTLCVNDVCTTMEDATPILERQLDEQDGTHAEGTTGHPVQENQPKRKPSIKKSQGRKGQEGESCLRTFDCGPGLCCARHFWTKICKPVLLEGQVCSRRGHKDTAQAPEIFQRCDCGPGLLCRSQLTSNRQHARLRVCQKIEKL

[5] = target: T4, recombinant mouse Dkk-2 (R&D systems Cat No. 2435-DK/CF) (mouse, UniProt Q9QYZ8 34-259, limits assumed); assay: SPR BIAcore, huMabJC18 captured by goat Fab2 anti-human Fc, mDkk-2 titrated from 88.8 nM
T4 construct: Bought; also called mDkk-2
T4 sequence (looked up): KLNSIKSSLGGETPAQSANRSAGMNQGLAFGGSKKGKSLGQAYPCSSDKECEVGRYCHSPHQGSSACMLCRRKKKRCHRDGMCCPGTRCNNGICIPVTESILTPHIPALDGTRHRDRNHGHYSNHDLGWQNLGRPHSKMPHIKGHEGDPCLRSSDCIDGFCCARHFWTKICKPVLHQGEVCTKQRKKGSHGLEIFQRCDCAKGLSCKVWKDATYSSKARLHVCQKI

[6] = target: T5, recombinant rat Dkk-1 (R&D systems Cat No. 4010-DK/CF) (rat); assay: SPR BIAcore, huMabJC18 captured by goat Fab2 anti-human Fc, rat Dkk-1 injected
T5 construct: Bought
Procedure: For the interaction analyses of huMabJC18 with mouse or rat Dkk-1, low-levels of huMabJC18 (typically, 100-400 response units) were captured on individual flow cells by goat Fab2 anti-human Fc, which was pre-immobilized to the CM5 chip surface. A goat Fab2 anti-human Fc-saturated flow cell containing no humanized antibody served as reference channel. Mouse or rat Dkk-1 (R&D Systems) was titrated over the chip using 70.1 nM or 30.2 nM as top concentration, respectively, of a three-fold dilution series Association and dissociation phases were monitored at 100 μL/min for 90 seconds and 30 minutes, respectively. Capture surfaces for all experiments were regenerated with two 30 second pulses of […] H₃PO₄, except for the amine-coupled huMabJC18 surface used in the human Dkk-1 experiment, which was not regenerated.

- Kd [1]: < 0.002 nM
- T1/2 [1]: > 96.3 h
- koff [1]: < 2e-06 s⁻¹
- kon [1]: > 1.3e+06 M⁻¹ s⁻¹
- fold increase in affinity against the parent mouse antibody JC18 [2]: > 100 fold
- fold increase in affinity against the parent mouse antibody JC18 [3]: > 100 fold
- Kd [4]: 11 nM
- T1/2 [4]: 1.12 h
- koff [4]: 0.000172 s⁻¹
- kon [4]: 15000 M⁻¹ s⁻¹
- Kd [5]: 9 nM
- T1/2 [5]: 1.14 h
- koff [5]: 0.000169 s⁻¹
- kon [5]: 18000 M⁻¹ s⁻¹
- Kd [6]: < 0.1 nM
- T1/2 [6]: 0.92 h
- koff [6]: 0.00021 s⁻¹
- kon [6]: > 1.3e+06 M⁻¹ s⁻¹
B1: huMabJC18, fully humanized anti-Dkk-1 monoclonal antibody (antibody, human IgG2, kappa, V domains shown)
VH: EVQLVESGGGLVQPGGSLRLSCAASGFTFSSYAISWVRQAPGKGLEWVASVSGTGLGFQTYYPDSVKGRFTISRDNAKNSLYLQMNSLRAEDTAVYYCATSLENYAFDYWGQGTTVTVSS
VL: EIVLTQSPATLSLSPGERATLSCRASESVDDFGISFINWYQQKPGQAPRLLIYAGSKQGSGIPARFSGSGSGTDFTLTISSLEPEDFAVYYCQQLKEVPPTFGGGTKVEIKR
notes: IgG2(delta a: A329S, P330S), kappa; also called huMabJC18 IgG
